What was measured:
[1] = target: T1, mouse PD-L2 with C-terminal biotin, Q9WUL5; test: 2D effective affinity measurement, PD-L2-coated RBCs against PD-1-expressing CHO cells; conditions: chain shown with the change, parent: est. 0.00098, read off a plot
T1 chain: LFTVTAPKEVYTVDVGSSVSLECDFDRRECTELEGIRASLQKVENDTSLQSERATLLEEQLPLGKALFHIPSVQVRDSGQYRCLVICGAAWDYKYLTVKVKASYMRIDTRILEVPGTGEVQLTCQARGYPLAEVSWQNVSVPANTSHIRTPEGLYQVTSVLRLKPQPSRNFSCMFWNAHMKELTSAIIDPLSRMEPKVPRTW

[2] = target: T1, mouse PD-L2 with C-terminal biotin, …; test: dynamic force spectroscopic analysis with BFP; conditions: chain shown with the change
[3] = target: T1, mouse PD-L2 with C-terminal biotin, …; test: effective bond lifetime (bond lifetime x bond survival probability, BFP data); conditions: chain shown with the change, read off a plot
[4] = target: T1, mouse PD-L2 with C-terminal biotin, …; test: bond lifetime vs force measurement, single bonds (BFP); conditions: chain shown with the change, read off a plot

Binder	other: AcKa (2D effective affinity) ([1]; n = 12 cell pairs) [µm^4]	other: F1/2 (rupture force) ([2]; n = 270 events) [pN]	other: AcKa (2D effective affinity) ([1]; n = 13 cell pairs) [µm^4]	other: effective bond lifetime ([3]; force bin est. 2.2 pN) [s]	other: effective bond lifetime ([3]; force bin est. 4.3 pN) [s]	other: effective bond lifetime ([3]; force bin est. 8.3 pN) [s]	other: effective bond lifetime ([3]; force bin est. 11 pN) [s]	other: F1/2 (rupture force) ([2]; n = 345 events) [pN]	other: bond lifetime ([4]; force bin est. 2.2 pN) [s]	other: bond lifetime ([4]; force bin est. 4.3 pN) [s]	other: bond lifetime ([4]; force bin est. 11 pN) [s]	other: F1/2 (rupture force) ([2]; n = 210 events) [pN]
mouse PD-1 wild type expressed on CHO cells, Q02242 A132K (protein) LEVPNGPWRSLTFYPAWLTVSEGANATFTCSLSNWSEDLMLNWNRLSPSNQTEKQAAFCNGLSQPVQDARFQIIQLPNRHDFHMNILDTRRNDSGIYLCGAISLHPKKKIEESPGAELVVTERILETSTRYPSPSPKPEGRFQGMVIGIMSALVGIPVLLLLAWALAVFCSTSMSEARGAGSKDDTLKEEPSAAPVPSVAYEELDFQGREKTPELPTACVHTEYATIVFTEGLGASAMGRRGSADGLQGPRPPRHEDGHCSWPL	0.00085	9.5										
mouse PD-1 wild type expressed on CHO cells, Q02242 L128A; K131A (protein) LEVPNGPWRSLTFYPAWLTVSEGANATFTCSLSNWSEDLMLNWNRLSPSNQTEKQAAFCNGLSQPVQDARFQIIQLPNRHDFHMNILDTRRNDSGIYLCGAISAHPAAKIEESPGAELVVTERILETSTRYPSPSPKPEGRFQGMVIGIMSALVGIPVLLLLAWALAVFCSTSMSEARGAGSKDDTLKEEPSAAPVPSVAYEELDFQGREKTPELPTACVHTEYATIVFTEGLGASAMGRRGSADGLQGPRPPRHEDGHCSWPL			0.00088	0.16	0.14	0.04	0.015	9.7	0.16	0.15	0.05	
mouse PD-1 wild type expressed on CHO cells, Q02242 K131A (protein) LEVPNGPWRSLTFYPAWLTVSEGANATFTCSLSNWSEDLMLNWNRLSPSNQTEKQAAFCNGLSQPVQDARFQIIQLPNRHDFHMNILDTRRNDSGIYLCGAISLHPAAKIEESPGAELVVTERILETSTRYPSPSPKPEGRFQGMVIGIMSALVGIPVLLLLAWALAVFCSTSMSEARGAGSKDDTLKEEPSAAPVPSVAYEELDFQGREKTPELPTACVHTEYATIVFTEGLGASAMGRRGSADGLQGPRPPRHEDGHCSWPL	0.0011											9.4

— publication PMC11437077
